Results from publication PMC9890228 (The EMBO Journal, 2022).

Target: T1, FANCD2 (human, UniProt Q9BXW9 1-1451)
T1 construct: The cryo-EM methods say only 'purified FANCD2'; The ubiquitination and deubiquitination reactions used N-terminally FLAG-tagged FANCD2; the functional rows use this molecule for it (for the USP1 rows in its K561-ubiquitinated form, D2Ub); Constructs as in Arkinson et al 2018 and Rennie et al 2020; also called D2^WT; source: Sf21 insect cells, purified (NiNTA, anion exchange, gel filtration)
T1 sequence (Q9BXW9 whole entry): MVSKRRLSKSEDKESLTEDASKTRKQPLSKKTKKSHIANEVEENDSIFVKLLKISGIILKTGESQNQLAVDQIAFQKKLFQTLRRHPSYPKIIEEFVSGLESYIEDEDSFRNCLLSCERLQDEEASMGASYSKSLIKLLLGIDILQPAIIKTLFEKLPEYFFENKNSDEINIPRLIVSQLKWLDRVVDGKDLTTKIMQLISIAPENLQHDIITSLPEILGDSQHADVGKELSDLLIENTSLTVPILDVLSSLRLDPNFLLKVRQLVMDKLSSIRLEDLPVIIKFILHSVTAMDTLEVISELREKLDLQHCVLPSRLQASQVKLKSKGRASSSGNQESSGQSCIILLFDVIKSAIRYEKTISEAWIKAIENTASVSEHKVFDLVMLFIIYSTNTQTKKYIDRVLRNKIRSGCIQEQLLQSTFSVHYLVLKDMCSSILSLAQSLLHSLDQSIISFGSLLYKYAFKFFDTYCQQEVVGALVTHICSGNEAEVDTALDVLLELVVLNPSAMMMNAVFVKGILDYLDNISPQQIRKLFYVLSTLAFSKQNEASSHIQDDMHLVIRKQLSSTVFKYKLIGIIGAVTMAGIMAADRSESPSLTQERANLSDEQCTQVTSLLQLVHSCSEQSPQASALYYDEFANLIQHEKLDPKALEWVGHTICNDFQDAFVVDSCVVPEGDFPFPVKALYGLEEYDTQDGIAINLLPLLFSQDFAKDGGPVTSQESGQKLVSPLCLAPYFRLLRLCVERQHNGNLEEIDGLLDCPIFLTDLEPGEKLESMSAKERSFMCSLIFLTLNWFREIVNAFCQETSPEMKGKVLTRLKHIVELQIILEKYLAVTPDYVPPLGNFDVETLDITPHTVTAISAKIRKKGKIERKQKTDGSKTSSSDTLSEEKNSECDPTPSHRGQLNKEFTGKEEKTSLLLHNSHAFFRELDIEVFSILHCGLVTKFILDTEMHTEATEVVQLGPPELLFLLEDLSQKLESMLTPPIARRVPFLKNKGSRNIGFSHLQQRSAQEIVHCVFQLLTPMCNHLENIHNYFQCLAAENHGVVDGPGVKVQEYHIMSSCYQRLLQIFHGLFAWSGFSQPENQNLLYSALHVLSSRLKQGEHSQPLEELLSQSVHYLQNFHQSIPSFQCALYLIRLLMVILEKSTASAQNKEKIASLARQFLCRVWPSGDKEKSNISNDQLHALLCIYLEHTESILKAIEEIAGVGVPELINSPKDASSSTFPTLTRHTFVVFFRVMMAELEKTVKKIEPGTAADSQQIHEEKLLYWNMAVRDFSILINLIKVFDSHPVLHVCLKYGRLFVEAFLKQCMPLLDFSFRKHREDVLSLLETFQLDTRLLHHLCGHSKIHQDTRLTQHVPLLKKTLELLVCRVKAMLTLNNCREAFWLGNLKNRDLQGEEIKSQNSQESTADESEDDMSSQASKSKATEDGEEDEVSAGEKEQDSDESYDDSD
Assay: cryo-EM structure; ubiquitinated His6-V5-FANCI mixed with FANCD2 at 1:1 molar ratio, 61 bp dsDNA added at 1:1; 20 mM Tris pH 8.0, 150 mM NaCl, 2 mM DTT; 4.1 Å global resolution
Details: both partners purified

- binding result: binds
B1: FANCI (the FANCI chain of ubiquitinated His6‐V5‐FANCI) (natural protein, human, UniProt Q9NVI1 1-1328, looked up)
chain: MDQKILSLAAEKTADKLQEFLQTLREGDLTNLLQNQAVKGKVAGALLRAIFKGSPCSEEAGTLRRRKIYTCCIQLVESGDLQKEIASEIIGLLMLEAHHFPGPLLVELANEFISAVREGSLVNGKSLELLPIILTALATKKENLAYGKGVLSGEECKKQLINTLCSGRWDQQYVIQLTSMFKDVPLTAEEVEFVVEKALSMFSKMNLQEIPPLVYQLLVLSSKGSRKSVLEGIIAFFSALDKQHNEEQSGDELLDVVTVPSGELRHVEGTIILHIVFAIKLDYELGRELVKHLKVGQQGDSNNNLSPFSIALLLSVTRIQRFQDQVLDLLKTSVVKSFKDLQLLQGSKFLQNLVPHRSYVSTMILEVVKNSVHSWDHVTQGLVELGFILMDSYGPKKVLDGKTIETSPSLSRMPNQHACKLGANILLETFKIHEMIRQEILEQVLNRVVTRASSPISHFLDLLSNIVMYAPLVLQSCSSKVTEAFDYLSFLPLQTVQRLLKAVQPLLKVSMSMRDCLILVLRKAMFANQLDARKSAVAGFLLLLKNFKVLGSLSSSQCSQSLSVSQVHVDVHSHYNSVANETFCLEIMDSLRRCLSQQADVRLMLYEGFYDVLRRNSQLANSVMQTLLSQLKQFYEPKPDLLPPLKLEACILTQGDKISLQEPLDYLLCCIQHCLAWYKNTVIPLQQGEEEEEEEEAFYEDLDDILESITNRMIKSELEDFELDKSADFSQSTSIGIKNNICAFLVMGVCEVLIEYNFSISSFSKNRFEDILSLFMCYKKLSDILNEKAGKAKTKMANKTSDSLLSMKFVSSLLTALFRDSIQSHQESLSVLRSSNEFMRYAVNVALQKVQQLKETGHVSGPDGQNPEKIFQNLCDITRVLLWRYTSIPTSVEESGKKEKGKSISLLCLEGLQKIFSAVQQFYQPKIQQFLRALDVTDKEGEEREDADVSVTQRTAFQIRQFQRSLLNLLSSQEEDFNSKEALLLVTVLTSLSKLLEPSSPQFVQMLSWTSKICKENSREDALFCKSLMNLLFSLHVSYKSPVILLRDLSQDIHGHLGDIDQDVEVEKTNHFAIVNLRTAAPTVCLLVLSQAEKVLEEVDWLITKLKGQVSQETLSEEASSQATLPNQPVEKAIIMQLGTLLTFFHELVQTALPSGSCVDTLLKDLCKMYTTLTALVRYYLQVCQSSGGIPKNMEKLVKLSGSHLTPLCYSFISYVQNKSKSLNYTGEKKEKPAAVATAMARVLRETKPIPNLIFAIEQYEKFLIHLSKKSKVNLMQHMKLSTSRDFKIKGNILDMVLREDGEDENEEGTASEHGGQNKEPAKKKRKK
modifications: K523 isopeptide-linked to G76 of ubiquitin
notes: The FANCI chain of m1, written on its own for its contacts with FANCD2 in the structure; source: Sf21 insect cells, purified (NiNTA, anion exchange, gel filtration); ubiquitinated in vitro; not shown: His6, N-terminal, kept; V5, N-terminal, kept
